Legend:
AUC = biological target: the molecule itself; assay: AUC
[1] = biological target: ALK-ECR^ABR−4M (T686A/N787A/Q788A/I795A) (human, UniProt Q9UM73 673-1025, T686A | N787A | Q788A | I795A); assay: SEC-MALS + AUC
SEC-MALS + AUC = biological target: the molecule itself; assay: SEC-MALS + AUC
[2] = biological target: ALK-ECR^ABR (residues 673–1025) (human); assay: SEC-MALS

B1: MBP-ALKAL2^C66Y (ligand, human)
chain: AEPREPADGQALLRLVVELVQELRKHHSAEHKGLQLLGRDYALGRAEAAGLGPSPEQRVEIVPRDLRMKDKFLKHLTGPLYFSPKCSKHFHRLYHNTRDCTIPAYYKRCARLLTRLAVSPVCMEDKQ
- Kd (AUC): 38 ± 6 µM

B2: ALKAL2^2M (full-size ALKAL2^C66Y with I127A/Y130A) (ligand, human, UniProt Q6UX46 26-152, looked up)
chain: AEPREPADGQALLRLVVELVQELRKHHSAEHKGLQLLGRDYALGRAEAAGLGPSPEQRVEIVPRDLRMKDKFLKHLTGPLYFSPKCSKHFHRLYHNTRDCTAPAAYKRCARLLTRLAVSPVCMEDKQ
- stoichiometry N [1]: 1

B3: ALK ECR^ABR−4M:ALKAL2^2M 1:1 complex (complex, human)
chain 1: QTPIFDPTVHWLFATCGASGPHGPTQAQCNNAYQNSNLSVEVGSEGPLKGIQIWKVPATDTYSISGYGAAGGKGGKNTMMRSHGVSVLGIFNLEKDDMLYILVGQQGEDACPSTAALIQKVCAGENNVIEEEIRVNRSVHEWAGGGGGGGGATYVFKMKDGVPVPLIIAAGGGGRAYGAKTDTFHPERLENNSSVLGLNGNSGAAGGGGGWNDNTSLLWAGKSLQEGATGGHSCPQAMKKWGWETRGGFGGGGGGCSSGGGGGGYIGGNAASNNDPEMDGEDGVSFISPLGILYTPALKVMEGHGEVNIKHYLNCSHCEVDECHMDPESHKVICFCDHGTVLAEDGVSCIVSP
chain 2: AEPREPADGQALLRLVVELVQELRKHHSAEHKGLQLLGRDYALGRAEAAGLGPSPEQRVEIVPRDLRMKDKFLKHLTGPLYFSPKCSKHFHRLYHNTRDCTAPAAYKRCARLLTRLAVSPVCMEDKQ
- fold reduction of dimerization to the 2:2 complex against the wild-type complex (SEC-MALS + AUC): 5 fold

B4: ALKAL2^C66Y (full-size, MBP removed) (ligand, human)
chain: AEPREPADGQALLRLVVELVQELRKHHSAEHKGLQLLGRDYALGRAEAAGLGPSPEQRVEIVPRDLRMKDKFLKHLTGPLYFSPKCSKHFHRLYHNTRDCTIPAYYKRCARLLTRLAVSPVCMEDKQ
- stoichiometry N [2]: 1

B5: ALK-ECR^ABR–ALKAL2^C66Y 1:1 heterodimeric complex (complex, human)
chain 1: QTPIFDPTVHWLFTTCGASGPHGPTQAQCNNAYQNSNLSVEVGSEGPLKGIQIWKVPATDTYSISGYGAAGGKGGKNTMMRSHGVSVLGIFNLEKDDMLYILVGQQGEDACPSTNQLIQKVCIGENNVIEEEIRVNRSVHEWAGGGGGGGGATYVFKMKDGVPVPLIIAAGGGGRAYGAKTDTFHPERLENNSSVLGLNGNSGAAGGGGGWNDNTSLLWAGKSLQEGATGGHSCPQAMKKWGWETRGGFGGGGGGCSSGGGGGGYIGGNAASNNDPEMDGEDGVSFISPLGILYTPALKVMEGHGEVNIKHYLNCSHCEVDECHMDPESHKVICFCDHGTVLAEDGVSCIVSP
chain 2: AEPREPADGQALLRLVVELVQELRKHHSAEHKGLQLLGRDYALGRAEAAGLGPSPEQRVEIVPRDLRMKDKFLKHLTGPLYFSPKCSKHFHRLYHNTRDCTIPAYYKRCARLLTRLAVSPVCMEDKQ
- Kd (SEC-MALS + AUC): ~3.2 µM
